Data from paper PMC12389326, “The Impact of the Injected Mass of the Gastrin-Releasing Peptide Receptor Antagonist on Uptake in Breast Cancer: Lessons from a Phase I Trial of [^99mTc]Tc-DB8” (Pharmaceutics, 2025).

Assays:
[1] = clinical; set-up: species or system human; settings: in vivo; for tissue uptake dose at 4 h / tissue uptake dose at 6 h / tissue uptake dose at 24 h / tissue uptake dose at 2 h: human, SD
Description: Imaging was performed using a Siemens Symbia Intevo Bold scanner equipped with a high-resolution, low-energy collimator. Anterior and posterior planar whole-body imaging (at a scan speed of 12 cm/min, 1024 × 256 pixel matrix) was performed at 2, 4, 6, and 24 h after injection of [^99mTc]Tc-DB8. SPECT/CT scans (SPECT: 60 projections, 20 s each, stored in 256 × 256 pixel matrix/CT: 130 kV, effective 36 mAs) covering the area from the neck to liver were performed 2, 4, and 6 h after injection of [^99mTc]Tc-DB8. SPECT images were reconstructed using xSPECT (Siemens) protocol based on the ordered subset conjugate gradient (OSCG) method (24 iterations, 2 subsets) with a 3D Gaussian FWHM 10 mm filter (Soft Tissue). The images were processed using the proprietary software package Syngo.via Workstation (Siemens Healthineers).
(§1) Dosimetry was evaluated as described in [44]. Briefly, regions of interest (ROI) were drawn over organs of interest and over the whole body on the anterior and posterior whole-body images of patients injected with [^99mTc]Tc-DB8; a geometric mean of counts at 2, 4, 6, and 24 h was calculated for each ROI. To assess elimination kinetics in blood, a ROI was placed over the heart. For quantification, a known activity of Tc-99m in a water-filled phantom in combination with Chang’s correction was used. Data were fitted by single exponential functions and residence time was calculated as areas under fitted curves using GraphPad Prism 8.0 (GraphPad Software, San Diego, CA, USA). Absorbed doses were calculated by OLINDA/EXM 1.1 using Adult Female phantom.

[2] = set-up: species or system human; settings: in vivo
Description: as §1

[3] = cited from earlier work
Description: The injected activities were selected to enable good counting statistics, permitting accurate dosimetry calculations up to 24 h after injection. […] Considering that the clear SPECT visualization was already observed 2 h after injection, the injected activ ...

[4] = 40 ug, Uptake in Liver (decay-corrected)
[5] = 40 ug, Uptake in Lungs (decay-corrected)
[6] = 40 ug, Uptake in Pancreas (decay-corrected)
[7] = 40 ug, total radioactivity, Uptake in Breast (decay-corrected)
[8] = 40 ug, total radioactivity, Uptake in Kidney (decay-corrected)
[9] = 40 ug, total radioactivity, Uptake in Small Intestine (decay-corrected)
[10] = 80 ug, Uptake in Liver (decay-corrected)
[11] = 80 ug, Uptake in Lungs (decay-corrected)
[12] = 80 ug, Uptake in Pancreas (decay-corrected)
[13] = 80 ug, total radioactivity, Uptake in Breast (decay-corrected)
[14] = 80 ug, total radioactivity, Uptake in Kidney (decay-corrected)
[15] = 80 ug, total radioactivity, Uptake in Small Intestine (decay-corrected)
[16] = 120 ug, Uptake in Liver (decay-corrected)
[17] = 120 ug, Uptake in Lungs (decay-corrected)
[18] = 120 ug, Uptake in Pancreas (decay-corrected)
[19] = 120 ug, total radioactivity, Uptake in Breast (decay-corrected)
[20] = 120 ug, total radioactivity, Uptake in Kidney (decay-corrected)
[21] = 120 ug, total radioactivity, Uptake in Small Intestine (decay-corrected)

`CCNC(=O)[C@H](CC(C)C)NC(=O)[C@H](Cc1c[nH]cn1)NC(=O)CNC(=O)[C@@H](NC(=O)[C@H](C)NC(=O)[C@H](Cc1c[nH]c2ccccc12)NC(=O)[C@H](CCC(N)=O)NC(=O)[C@@H](Cc1ccccc1)NC(=O)COCC(=O)Nc1ccc(CNC(=O)C(CNCCN)CNCCN)cc1)C(C)C` [[^99mTc]Tc-DB8, metal not drawn] showed a tissue uptake dose at 4 h [1, 4] of 2.1 ± 1.1 %ID, a tissue uptake dose at 6 h [1, 4] of 1.6 ± 0.8 %ID and a tissue uptake dose at 24 h [1, 4] of 0.8 ± 0.4 %ID. The tissue uptake dose at 2 h [1, 5] was 3.8 ± 0.5 %ID, the tissue uptake dose at 4 h [1, 5] was 2.3 ± 0.3 %ID and the tissue uptake dose at 6 h [1, 5] was 1.6 ± 0.2 %ID. The tissue uptake dose at 24 h [1, 5] was 0.7 ± 0.1 %ID, the tissue uptake dose at 2 h [1, 6] was 1.5 ± 0.5 %ID and the tissue uptake dose at 4 h [1, 6] was 0.9 ± 0.4 %ID. It also gave a tissue uptake dose at 6 h [1, 6] of 0.7 ± 0.3 %ID, a tissue uptake dose at 24 h [1, 6] of 0.35 ± 0.09 %ID and a tissue uptake dose at 2 h [1, 7] of 4.2 ± 1.1 %ID. The tissue uptake dose at 4 h [1, 7] was 2.4 ± 0.4 %ID, the tissue uptake dose at 6 h [1, 7] was 1.7 ± 0.3 %ID and the tissue uptake dose at 24 h [1, 7] was 0.7 ± 0.1 %ID. For the same molecule, the tissue uptake dose at 2 h [1, 8] was 3.1 ± 1.9 %ID, the tissue uptake dose at 4 h [1, 8] was 2.1 ± 0.9 %ID and the tissue uptake dose at 6 h [1, 8] was 1.6 ± 0.5 %ID. It also gave a tissue uptake dose at 24 h [1, 8] of 0.9 ± 0.2 %ID, a tissue uptake dose at 2 h ([1]; 40 ug, total radioactivity, Uptake in Liver (decay-corrected)) of 3 ± 1.6 %ID and a tissue uptake dose at 2 h [1, 9] of 4.2 ± 1.6 %ID. It also gave a tissue uptake dose at 4 h [1, 9] of 2.8 ± 1.1 %ID, a tissue uptake dose at 6 h [1, 9] of 2.1 ± 0.7 %ID and a tissue uptake dose at 24 h [1, 9] of 1.4 ± 0.3 %ID. The tissue uptake dose at 2 h [1, 10] was 3.3 ± 0.9 %ID, the tissue uptake dose at 4 h [1, 10] was 2.2 ± 0.8 %ID and the tissue uptake dose at 6 h [1, 10] was 1.4 ± 0.7 %ID. It also gave a tissue uptake dose at 24 h [1, 10] of 0.7 ± 0.3 %ID, a tissue uptake dose at 2 h [1, 11] of 5.9 ± 1.6 %ID and a tissue uptake dose at 4 h [1, 11] of 4.1 ± 1.6 %ID. For the same molecule, the tissue uptake dose at 6 h [1, 11] was 2.8 ± 1.2 %ID, the tissue uptake dose at 24 h [1, 11] was 0.9 ± 0.4 %ID and the tissue uptake dose at 2 h [1, 12] was 1.2 ± 0.3 %ID. The tissue uptake dose at 4 h [1, 12] was 0.8 ± 0.3 %ID, the tissue uptake dose at 6 h [1, 12] was 0.6 ± 0.3 %ID and the tissue uptake dose at 24 h [1, 12] was 0.2 ± 0.1 %ID. The tissue uptake dose at 2 h [1, 13] was 6.2 ± 1.9 %ID, the tissue uptake dose at 4 h [1, 13] was 3.4 ± 1.7 %ID and the tissue uptake dose at 6 h [1, 13] was 2.7 ± 1.2 %ID. For the same molecule, the tissue uptake dose at 24 h [1, 13] was 0.8 ± 0.4 %ID, the tissue uptake dose at 2 h [1, 14] was 5.1 ± 2.1 %ID and the tissue uptake dose at 4 h [1, 14] was 2.8 ± 0.9 %ID. The tissue uptake dose at 6 h [1, 14] was 2.2 ± 0.9 %ID, the tissue uptake dose at 24 h [1, 14] was 1.2 ± 0.8 %ID and the tissue uptake dose at 2 h [1, 15] was 3.4 ± 1.1 %ID. It also gave a tissue uptake dose at 4 h [1, 15] of 2.2 ± 0.6 %ID, a tissue uptake dose at 6 h [1, 15] of 1.6 ± 0.6 %ID and a tissue uptake dose at 24 h [1, 15] of 0.7 ± 0.4 %ID. It also gave a tissue uptake dose at 2 h [1, 16] of 2.2 ± 0.9 %ID, a tissue uptake dose at 4 h [1, 16] of 1.5 ± 0.7 %ID and a tissue uptake dose at 6 h [1, 16] of 1.1 ± 0.5 %ID. The tissue uptake dose at 24 h [1, 16] was 0.5 ± 0.2 %ID, the tissue uptake dose at 2 h [1, 17] was 3.5 ± 1.3 %ID and the tissue uptake dose at 4 h [1, 17] was 2 ± 1 %ID. The tissue uptake dose at 6 h [1, 17] was 1.6 ± 0.7 %ID, the tissue uptake dose at 24 h [1, 17] was 0.6 ± 0.2 %ID and the tissue uptake dose at 2 h [1, 18] was 0.8 ± 0.2 %ID. The tissue uptake dose at 4 h [1, 18] was 0.5 ± 0.1 %ID, the tissue uptake dose at 6 h [1, 18] was 0.34 ± 0.09 %ID and the tissue uptake dose at 24 h [1, 18] was 0.15 ± 0.06 %ID. For the same molecule, the tissue uptake dose at 2 h [1, 19] was 3.5 ± 1.1 %ID, the tissue uptake dose at 4 h [1, 19] was 2 ± 0.8 %ID and the tissue uptake dose at 6 h [1, 19] was 1.3 ± 0.5 %ID. For the same molecule, the tissue uptake dose at 24 h [1, 19] was 0.6 ± 0.2 %ID, the tissue uptake dose at 2 h [1, 20] was 3.5 ± 1.6 %ID and the tissue uptake dose at 4 h [1, 20] was 2.2 ± 1 %ID. The tissue uptake dose at 6 h [1, 20] was 1.7 ± 0.8 %ID, the tissue uptake dose at 24 h [1, 20] was 1.1 ± 0.4 %ID and the tissue uptake dose at 2 h [1, 21] was 3.3 ± 1 %ID. The tissue uptake dose at 4 h [1, 21] was 2.1 ± 0.7 %ID, the tissue uptake dose at 6 h [1, 21] was 1.8 ± 0.6 %ID and the tissue uptake dose at 24 h [1, 21] was 1.1 ± 0.4 %ID. For the same molecule, the Route of elimination [1] was “predominantly via the kidneys”, the “Absorbed dose, Urinary bladder wall” value [2] was 0.02 ± 0.01 mGy/MBq and the Absorbed equivalent dose [2] was 4.6 mSv. The Effective dose [2] was 0.009–0.014 mSv/MBq.
For [^18F]FDG, the “Absorbed dose after injection for visualization of breast cancer” value [3] is listed as 2.5–4.3 mSv.
